The results in this text go back to IntAct's records for PubMed 30126976.

Sequences and labels used below:
B1: Copine-8 (Homo sapiens), Q86YQ8 (parent)
chain: MDSRYNSTAGIGDLNQLSAAIPATRVEVSVSCRNLLDRDTFSKSDPICVLYVQGVGNKEWREFGRTEVIDNTLNPDFVRKFILDYFFEERENLRFDLYDVDSKSPNLSKHDFLGQVFCTLGEIVGSQGSRLEKPIVGIPGKKCGTIILTAEELNCCRDAVLMQFCANKLDKKDFFGKSDPFLVFYRSNEDGSFTICHKTEVVKNTLNPVWQAFKISVRALCNGDYDRTIKVEVYDWDRDGSHDFIGEFTTSYRELSRGQSQFNVYEVVNPKKKGKKKKYTNSGTVTLLSFLVETEVSFLDYIKGGTQINFTVAIDFTASNGNPAQPTSLHYMNPYQLNAYGMALKAVGEIVQDYDSDKMFPALGFGAKLPPDGRISHEFALNGNPQNPYCDGIEGVMEAYYRSLKSVQLYGPTNFAPVINHVARYASSVKDGSQYFVLLIVTDGVISDMAQTKESIVNASKLPMSIIIVGVGPAEFDAMVELDGDDVRVSSRGKYAERDIVQFVPFRDYIDRSGNHILSMARLAKDVLAEIPEQFLSYMRARGIKPSPAPPPYTPPTHVLQTQI
B2: Plasma membrane calcium-transporting ATPase 1 (Homo sapiens), P20020 (parent)
chain: MGDMANNSVAYSGVKNSLKEANHDGDFGITLAELRALMELRSTDALRKIQESYGDVYGICTKLKTSPNEGLSGNPADLERREAVFGKNFIPPKKPKTFLQLVWEALQDVTLIILEIAAIVSLGLSFYQPPEGDNALCGEVSVGEEEGEGETGWIEGAAILLSVVCVVLVTAFNDWSKEKQFRGLQSRIEQEQKFTVIRGGQVIQIPVADITVGDIAQVKYGDLLPADGILIQGNDLKIDESSLTGESDHVKKSLDKDPLLLSGTHVMEGSGRMVVTAVGVNSQTGIIFTLLGAGGEEEEKKDEKKKEKKNKKQDGAIENRNKAKAQDGAAMEMQPLKSEEGGDGDEKDKKKANLPKKEKSVLQGKLTKLAVQIGKAGLLMSAITVIILVLYFVIDTFWVQKRPWLAECTPIYIQYFVKFFIIGVTVLVVAVPEGLPLAVTISLAYSVKKMMKDNNLVRHLDACETMGNATAICSDKTGTLTMNRMTVVQAYINEKHYKKVPEPEAIPPNILSYLVTGISVNCAYTSKILPPEKEGGLPRHVGNKTECALLGLLLDLKRDYQDVRNEIPEEALYKVYTFNSVRKSMSTVLKNSDGSYRIFSKGASEIILKKCFKILSANGEAKVFRPRDRDDIVKTVIEPMASEGLRTICLAFRDFPAGEPEPEWDNENDIVTGLTCIAVVGIEDPVRPEVPDAIKKCQRAGITVRMVTGDNINTARAIATKCGILHPGEDFLCLEGKDFNRRIRNEKGEIEQERIDKIWPKLRVLARSSPTDKHTLVKGIIDSTVSDQRQVVAVTGDGTNDGPALKKADVGFAMGIAGTDVAKEASDIILTDDNFTSIVKAVMWGRNVYDSISKFLQFQLTVNVVAVIVAFTGACITQDSPLKAVQMLWVNLIMDTLASLALATEPPTESLLLRKPYGRNKPLISRTMMKNILGHAFYQLVVVFTLLFAGEKFFDIDSGRNAPLHAPPSEHYTIVFNTFVLMQLFNEINARKIHGERNVFEGIFNNAIFCTIVLGTFVVQIIIVQFGGKPFSCSELSIEQWLWSIFLGMGTLLWGQLISTIPTSRLKFLKEAGHGTQKEEIPEEELAEDVEEIDHAERELRRGQILWFRGLNRIQTQIRVVNAFRSSLYEGLEKPESRSSIHNFMTHPEFRIEDSEPHIPLIDDTDAEDDAPTKRNSSPPPSPNKNNNAVDSGIHLTIEMNKSATSSSPGSPLHSLETSL
B3: Plasma membrane calcium-transporting ATPase 2 (Homo sapiens), Q01814 (parent)
chain: MGDMTNSDFYSKNQRNESSHGGEFGCTMEELRSLMELRGTEAVVKIKETYGDTEAICRRLKTSPVEGLPGTAPDLEKRKQIFGQNFIPPKKPKTFLQLVWEALQDVTLIILEIAAIISLGLSFYHPPGEGNEGCATAQGGAEDEGEAEAGWIEGAAILLSVICVVLVTAFNDWSKEKQFRGLQSRIEQEQKFTVVRAGQVVQIPVAEIVVGDIAQVKYGDLLPADGLFIQGNDLKIDESSLTGESDQVRKSVDKDPMLLSGTHVMEGSGRMLVTAVGVNSQTGIIFTLLGAGGEEEEKKDKKGVKKGDGLQLPAADGAAASNAADSANASLVNGKMQDGNVDASQSKAKQQDGAAAMEMQPLKSAEGGDADDRKKASMHKKEKSVLQGKLTKLAVQIGKAGLVMSAITVIILVLYFTVDTFVVNKKPWLPECTPVYVQYFVKFFIIGVTVLVVAVPEGLPLAVTISLAYSVKKMMKDNNLVRHLDACETMGNATAICSDKTGTLTTNRMTVVQAYVGDVHYKEIPDPSSINTKTMELLINAIAINSAYTTKILPPEKEGALPRQVGNKTECGLLGFVLDLKQDYEPVRSQMPEEKLYKVYTFNSVRKSMSTVIKLPDESFRMYSKGASEIVLKKCCKILNGAGEPRVFRPRDRDEMVKKVIEPMACDGLRTICVAYRDFPSSPEPDWDNENDILNELTCICVVGIEDPVRPEVPEAIRKCQRAGITVRMVTGDNINTARAIAIKCGIIHPGEDFLCLEGKEFNRRIRNEKGEIEQERIDKIWPKLRVLARSSPTDKHTLVKGIIDSTHTEQRQVVAVTGDGTNDGPALKKADVGFAMGIAGTDVAKEASDIILTDDNFSSIVKAVMWGRNVYDSISKFLQFQLTVNVVAVIVAFTGACITQDSPLKAVQMLWVNLIMDTFASLALATEPPTETLLLRKPYGRNKPLISRTMMKNILGHAVYQLALIFTLLFVGEKMFQIDSGRNAPLHSPPSEHYTIIFNTFVMMQLFNEINARKIHGERNVFDGIFRNPIFCTIVLGTFAIQIVIVQFGGKPFSCSPLQLDQWMWCIFIGLGELVWGQVIATIPTSRLKFLKEAGRLTQKEEIPEEELNEDVEEIDHAERELRRGQILWFRGLNRIQTQIRVVKAFRSSLYEGLEKPESRTSIHNFMAHPEFRIEDSQPHIPLIDDTDLEEDAALKQNSSPPSSLNKNNSAIDSGINLTTDTSKSATSSSPGSPIHSLETSL
B4: FAST kinase domain-containing protein 5, mitochondrial (Homo sapiens), Q7L8L6 (parent)
chain: MAATLKSLKLVRYRAFCSPSAFGAVRSVSYWNVSSTQHGGQDPPEHISLCHSAKKVKNICSTFSSRRILTTSSAHPGLEFSKTSSSKASTLQLGSPRATGVDEEDVEVFDSFENMRVFLQLRPEYRVHSYNASETSQLLSVSEGELILHKVRVNQNNLQAQVIVDYLCKLSSLPAEQHPVLLGSTSFALLCQLSVKKIQLFDTQDLINVLKAFVILGIPHSHSMLDVYETKCCHQVWEMNMDQLLLVADLWRYLGRKVPRFLNIFSSYLNLHWKDLSLSQLVHLIYVIGENRQVSQDLMQKLESLILKYIDLINLEEVGTICLGFFKSSTNLSEFVMRKIGDLACANIQHLSSRSLVNIVKMFRFTHVDHINFMKQIGEIAPQRIPSLGVQGVMHLTLYCSALRFLNEGVMNAVAASLPPRVAHCRSKDVAKILWSFGTLNYKPPNAEEFYSSLISEIHRKMPEFNQYPEHLPTCLLGLAFLEYFPVELIDFALSPGFVRLAQERTKFDLLKELYTLDGTVGIECPDYRGNRLSTHLQQEGSELLWYLAEKDMNSKPEFLETVFLLETMLGGPQYVKHHMILPHTRSSDLEVQLDVNLKPLPFNREATPAENVAKLRLEHVGVSLTDDLMNKLLKGKARGHFQGKTESEPGQQPMELENKAAVPLGGFLCNVADKSGAMEMAGLCPAACMQTPRMKLAVQFTNRNQYCYGSRDLLGLHNMKRRQLARLGYRVVELSYWEWLPLLKRTRLEKLAFLHEKVFTSAL

The variants in the first test derive from B1. The note with it: with scrib_human SCRIB.
Target sequence in this assay (Q14160 whole entry): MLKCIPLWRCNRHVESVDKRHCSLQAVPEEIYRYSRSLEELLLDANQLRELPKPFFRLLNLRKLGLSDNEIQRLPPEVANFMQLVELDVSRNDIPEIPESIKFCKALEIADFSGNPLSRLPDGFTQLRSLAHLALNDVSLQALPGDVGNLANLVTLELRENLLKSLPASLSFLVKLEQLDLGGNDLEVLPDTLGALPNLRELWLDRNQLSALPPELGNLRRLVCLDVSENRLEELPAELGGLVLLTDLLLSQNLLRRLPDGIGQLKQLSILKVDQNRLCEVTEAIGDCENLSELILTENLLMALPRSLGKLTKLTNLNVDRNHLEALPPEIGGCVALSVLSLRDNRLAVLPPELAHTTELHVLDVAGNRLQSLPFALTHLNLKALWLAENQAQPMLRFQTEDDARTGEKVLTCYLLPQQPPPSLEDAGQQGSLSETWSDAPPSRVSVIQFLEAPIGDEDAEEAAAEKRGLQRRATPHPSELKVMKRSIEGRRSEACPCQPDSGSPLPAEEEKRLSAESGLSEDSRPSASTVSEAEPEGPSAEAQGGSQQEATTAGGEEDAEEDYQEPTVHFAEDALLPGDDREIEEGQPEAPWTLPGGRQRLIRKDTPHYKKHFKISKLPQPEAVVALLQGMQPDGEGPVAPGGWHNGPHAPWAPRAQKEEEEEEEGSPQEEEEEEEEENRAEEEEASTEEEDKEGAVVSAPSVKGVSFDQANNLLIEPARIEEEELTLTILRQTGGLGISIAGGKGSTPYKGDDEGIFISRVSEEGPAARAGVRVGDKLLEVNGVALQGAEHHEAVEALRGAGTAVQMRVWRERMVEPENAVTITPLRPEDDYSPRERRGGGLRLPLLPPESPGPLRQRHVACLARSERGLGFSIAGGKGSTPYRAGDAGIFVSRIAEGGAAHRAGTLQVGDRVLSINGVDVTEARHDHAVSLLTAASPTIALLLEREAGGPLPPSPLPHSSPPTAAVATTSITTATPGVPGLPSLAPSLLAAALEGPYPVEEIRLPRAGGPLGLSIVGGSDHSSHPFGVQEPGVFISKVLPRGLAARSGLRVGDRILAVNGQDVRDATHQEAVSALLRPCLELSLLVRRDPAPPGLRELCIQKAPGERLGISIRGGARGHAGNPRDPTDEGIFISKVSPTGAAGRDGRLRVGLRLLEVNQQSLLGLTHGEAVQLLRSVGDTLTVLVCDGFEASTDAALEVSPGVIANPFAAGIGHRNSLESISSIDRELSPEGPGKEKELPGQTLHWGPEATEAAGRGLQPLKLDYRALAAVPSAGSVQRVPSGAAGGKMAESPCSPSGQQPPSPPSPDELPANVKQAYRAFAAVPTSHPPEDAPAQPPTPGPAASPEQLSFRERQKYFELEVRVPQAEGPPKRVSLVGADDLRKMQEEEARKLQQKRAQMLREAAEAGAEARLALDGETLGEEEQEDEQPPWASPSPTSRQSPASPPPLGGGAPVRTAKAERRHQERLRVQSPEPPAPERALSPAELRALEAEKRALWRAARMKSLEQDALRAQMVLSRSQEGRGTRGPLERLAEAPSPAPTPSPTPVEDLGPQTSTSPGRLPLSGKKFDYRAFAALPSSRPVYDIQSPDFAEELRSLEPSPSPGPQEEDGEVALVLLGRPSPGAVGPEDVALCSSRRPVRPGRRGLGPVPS
For the variant MDSRYNSTAGIGDLNQLSAAIPATRVEVSVSCRNLLDRDTFSKSDPICVLYVQGVGNKEWREFGRTEVIDNTLNPDFVRKFILDYFFEERENLRFDLYDVDSKSPNLSKHDFLGQVFCTLGEIVGSQGSRLEKPIVGIPGKKCGTIILTAEELNCCRDAVLMQFCANKLDKKDFFGKSDPFLVFYRSNEDGSFTICHKTEVVKNTLNPVWQAFKISVRALCNGDYDRTIKVEVYDWDRDGSHDFIGEFTTSYRELSRGQSQFNVYEVVNPKKKGKKKKYTNSGTVTLLSFLVETEVSFLDYIKGGTQINFTVAIDFTASNGNPAQPTSLHYMNPYQLNAYGMALKAVGEIVQDYDSDKMFPALGFGAKLPPDGRISHEFALNGNPQNPYCDGIEGVMEAYYRSLKSVQLYGPTNFAPVINHVARYASSVKDGSQYFVLLIVTDGVISDMAQTKESIVNASKLPMSIIIVGVGPAEFDAMVELDGDDVRVSSRGKYAERDIVQFVPFRDYIDRSGNHILSMARLAKDVLAEIPEQFLSYMRARGIKPSPAPPPYTPPEHVLQTQI [T557E], the “effect of a mutation on the interaction” value is given as “causing an interaction”.

Variants of B2 are the subject of the next test. The note with it: with scrib_human SCRIB.
Target sequence in this assay (Q14160 whole entry): as the sequence (Q14160 whole entry) above
As to S1215E;S1219E, the “effect of a mutation on the interaction” value was “increasing interaction strength”.

The next test covers variants of B2. The note with it: with scrib_human SCRIB. This is another data set of the same source.
Target sequence in this assay (Q14160 whole entry): as the sequence (Q14160 whole entry) above
With S1219E, the “effect of a mutation on the interaction” value is “increasing interaction strength”.

The next test covers variants of B3. The note with it: with scrib_human SCRIB.
Target sequence in this assay (Q14160 whole entry): as the sequence (Q14160 whole entry) above
With S1238E;S1242E, the “effect of a mutation on the interaction” value is on record as “with no effect”.
Same read-out and setting: next, S1242E: “with no effect”; T1241E: “decreasing interaction strength”.

Variants of B3 are the subject of another test. The note with it: with scrib_human SCRIB. The source holds these as a separate data set.
Target sequence in this assay (Q14160 whole entry): as the sequence (Q14160 whole entry) above
For S1242E, the “effect of a mutation on the interaction” value is recorded as “increasing interaction strength”.
On the same count and under the same terms, in the case of S1238E it was “disrupting interaction strength”.

The variants in the next test derive from B4. The note with it: with scrib_human SCRIB.
Target sequence in this assay (Q14160 whole entry): as the sequence (Q14160 whole entry) above
Consider T761E, for which the “effect of a mutation on the interaction” value was “causing an interaction”.

Variants of B4 are the subject of the next test. The note with it: with scrib_human SCRIB. The source holds these as a separate data set.
Regarding T761E, the “effect of a mutation on the interaction” value is on record as “increasing interaction strength”.
